Test results: a protein production outcome set (Wang et al. 2014)

Experiment: label from the status in PepcDB records

Q: Which protein production does the source give for “MRPLEDDEPTVVGPYRLLGRLGSGGMGRVYLGRSAGGRTVAVKIVHPHFALDEEFRARFRREVAAARRVGGAWTAPVLDADPEARVPWVATAYAAGPSLTAAVADGGPLPAHSVRALGAGLGEALAAVHELGLVHRDVKPSNVLLTLDGPLLIDFGIARATGGTSPTQSGGGTASLTSTGVSIGSPGYMSPEQILGKGVTGAADVFSLGAVLAYATTGQPPFPGDSSAALLYKVVHEEPNLDGLDDGELRELVASCLAKDPSARPAPAEVARRLAPEGAARLVTGGWLPGALVERVSRSAVRLLNLEAGESATGASGPVGFSRPSVTAGGDAGVATPASGVFGPPPVMPAPTSPSYPPSPPAPAPAPSPALLSVPGPRHPGPPDDDPGAGTGTTRPPGRLALSVAATSTQGAQGRGRRISCTVALAVAGALAAVTVGSVFVLDLLPGSGNDANNAGGNEASHDPPAATPGGLPARYLGTWEGQAAALDGKLPLGTFRITIKQAKAGQELGRLRQTDALGGVCVDVITLKKVTEKQLVAGSAGAEGNHDGCNPAPTTVTFTPVGDDLDYASKSEESGRPTARLSKVG” here?
A: failed

Q: For “MRPSAPNIWIWKVSNLASDPRETVSGEWYAARSNLSSAARLRHGGTLLLVLDAKDNHVITKAEIKAVEISHRVGTIPREIHFPDGSLFETSDNEGVDRLLGLYLPKRAGFVHRLEQFRPRLIGITAAAVLLAYGTYKLALPAVVELAVAMTPPIVPKIMSASTMQALDQTVFSASELPLEEQNAIRVQFSRIAAHAEGSPEDYKLNFRKGGYIGPNAFALPDGTLVLTDELVELAGGDRQMIIGVLAHEIGHVEYEHSLRQLYRAAGVAGLVMLIAGDVGSAMEDILTQGGGLLALSHSRDAERQADQRSVELMRKADLDPTAIERFFALLEEKLGDKGGTSIISTHPGTPQRRKAIIDYNASLDNKPAGNLEHHHHHH”, which protein production is on record?
A: failed

Q: For “MRPTITALVLTYNGERLLDRCLGSLAFCDRILVVDSFSTDATVAIAQAAGAEVLQRKWEGPGPQFAFALEKISDGWIVSLDQDEICSEELRDSILAATAADSGEAGYWIPRRSWYFDRFLKHSGWYPDHLLRLFRAGRMRVEVSGAHYSFHPDGETGTLTGDILHYPYESFRQHLDKVNDYAQKGADDLRAKGKRGGLCAGLCHGAGRFIRIYIIKRGFLDGRAGFINAIHGAFYAFLKHLRIEEGDWGRPFEHKLEHHHHHH”, which protein production is on record?
A: not failed

Q: For “MRQARGRVHKNLGARVGSARPRSSLGHRTGIMKGQDMPGTVRLHRVLTTSPEKVYRAFVEADALAKWLPPNGFTCTVDHLEAKVGGTFKMSFRNFTTGGSHAFGGEYLELVPGERLRYTDRFDDPNLPGEIQVTVILKKVSVGTEIDITQAGIPDVIPVEACYLGWQESLRNLAKLVEPEINQ”, which protein production is on record?
A: failed

Q: For “MRQIPQNHIHTRSTPFWNKETAPAGIFERHLDKGTRPGVYPRLSVMQGAVKYLGYADEHCSEPEEIMVINAGEFGVFPPEKWHNIEVMTDDTYFNIDFFVAPEVLMEGATSRKVIHAGRE”, which protein production is on record?
A: failed

Q: For “MRQKETTATTRFSLLPGSITRFFLLLIIVLLVTMGVMVQSAVNAWLKDKSYQIVDITHAIQKRVDNWRYVTWQIYDNIAATTSPSSGEGLQETRLKQDVYYLEKPRRKTEALIFGSHDNSTLEMTQRMSTYLDTLWGAENVPWSMYYLNGQDNSLVLISTLPLKDLTSGFKESTVSDIVDSRRAEMLQQANALDERESFSNMRRLAWQNGHYFTLRTTFNQPGHLATVVAFDLPINDLIPPGMPLDSFRLEPDATATGNNDNEKEGTDSVSIHFNSTKIEISSALNSTDMRLVWQVPYGTLLLDTLQNILLPLLLNIGLLALALFGYTTFRHFSSRSTENVPSTAVNNELRILRAINEEIVSLLPLGLLVHDQESNRTVISNKIADHLLPHLNLQNITTMAEQHQGIIQATINNELYEIRMFRSQVAPRTQIFIIRDQDREVLVNKKLKQAQRLYEKNQQGRMIFMKNIGDALKEPAQSLAESAAKLNAPESKQLANQADVLVRLVDEIQLANMLADDSWKSETVLFSVQDLIDEVVPSVLPAIKRKGLQLLINNHLKAHDMRRGDRDALRRILLLLMQYAVTSTQLGKITLEVDQDESSEDRLTFRILDTGEGVSIHEMDNLHFPFINQTQNDRYGKADPLAFWLSDQLARKLGGHLNIKTRDGLGTRYSVHIKMLAADPEVEEEEERLLDDVCVMVDVTSAEIRNIVTRQLENWGATCITPDERLISQDYDIFLTDNPSNLTASGLLLSDDESGVREIGPGQLCVNFNMSNAMQEAVLQLIEVQLAQEEVTESPLGGDENAQLHASGYYALFVDTVPDDVKRLYTEAATSDFAALAQTAHRLKGVFAMLNLVPGKQLCETLEHLIREKDVPGIEKYISDIDSYVKSLL”, which protein production is on record?
A: failed

Q: With “MRQPAIAAVDLGASKVTCFIMKADGVHRDNRTLTTAGVGYVQSRGVRGGAIVNLDEAAQAIAQAVERAETVAGVSVQGVSVCTAGGQLASHRVHTQVSLGARPIGDGDLSRAIASALAQVRIPGRKPIHLLPIAWSVDGQRGIRDPRAMFGRALGLELLVVSVNENIFHTLAHCVERAHLSFEGIVAAPFASALAALEEDEMDLGAVCIDMGGGSTSVAVFNNGALCHVDSLAVGGGHVTQDIARGLQTSVVGAERIKTLHGSAIASANEDREMIEAPPRGDDPGAGPVIAPRSLLKGIIQPRVEETLELLRERLKASGAPVEPGAGIVLTGGASQLAGVREVAVRVFDRPVRLGRPRRVPHLADAASGPAFCAAAGVLHRTAFGPREAVSSKALAGGVARKRPIDPNASPMAKAAAWLRDNL” as the sequence, how does the protein production read?
A: failed

Q: For “MRQRTIVCPLIQNDGCYLLCKMADNRGVFPGQWALSGGGVEPGERIEEALRREIREELGEQLILSDITPWTFRDDIRIKTYADGRQEEIYMIYLIFDCVSANRDICINDEFQDYAWVAPAALALYDLNVATRHTLALKGLL”, which protein production is on record?
A: not failed

Q: Which protein production does the source give for “MRQWIAVFALVGSVAAQAGVADQAAAVSALKEGKLAMDVRSQTDYEAGTVLNAVRVDERRLVNQMKQVLSDRNAVFVIFSSTDSKADKAQEKLRAAGYFSVINGGNYEELHNALYDITDDPAE” here?
A: failed

Q: With “MRREALKNAVLKIMTEKMELKNVTHLEETMRLNQDLYIDSVMMLQLIVYIEMDVKLCVPEDEVDPKAFLTVGSLLDFMEELQPLQDVNVNN” as the sequence, how does the protein production read?
A: failed

Q: Which protein production does the source give for “MRRFALTVALPKGRMFREAYEVLKRAGLDLPEVEGERTLLHGKEGGVALLELRNKDVPIYVDLGIAEIGVVGKDVLLDSGRDLFEPVDLGFGACRLSLIRRPGDTGPIRRVATKYPNFTARLLKERGWAADVVELSGNIELAAVTGLADAVVDVVQTGATLRAAGLVEVEVLAHSTARLVVNRQALKLKRAVLKPLIQRLRELSGS” here?
A: not failed

Q: With “MRRICKVLMVIISIILGSGAPLNMAIPPLLALAAPDTSSSSTMSSSAISKVTDTNVMAVSADVTSTTDTSDTSSSDSTSATSTTTGNDTTETADTAVESGTVGTVAWTIDDAGVLTLSGGSFADLTGKRSPWYDYASSITNIKITDEITVTTASNYGYLFASLANVATVTGLNKLSMSGVTSTQSIFYRDSKLTSVDFGQTDFSTVTTMESMFEGCSVLTKVNTTNWNVSHVKSFKRTFYMCGKLTMLDVSNWDVTQVTNLDSTFSGCSSLPELDVSRWNTANVTTLASTFYSCSSVKIINASGWDTARVTDMTATFMNCTLATELNVSGWDTAKVTSMSRMFFYCENVIQLDVSGWITSQVTSLGSMFQNCSKVVTLDVGTWDTSKVTDMSFLFGGCSSLTTLNLEKWDTGSVTTLYSTFYNCSGLTSLLVDTWDTSKVTNCFWTFGGCSSLTTLNLRSWDLQSATASYGNFFNGSKKLQHLTLGPNFTFHNDKTMYLPEPSKQLPYNGTWQRNNDDPTYTSAELMTNYDGATMAGTYNWVKTSGTVLVKYVDGDGVEIADEETSSGTSGDAYQTTAKTIDGYTLHATPTNATGTYDASTITVTYVYDGNLFFNSSPTMLDFGSHTISGTTETYAPTLDKTLAVQNNGQISSTWNLTAELDSSGFVGADTGKMLLATLYYQTDDGKMTLSPGVAVQVYSQTTTDHKSVDISEHWSSNLGLLLEVPNGAAMADTYQGTISWRLNNTVANN” as the sequence, how does the protein production read?
A: failed

Q: Which protein production does the source give for “MRRKNLFWDDVYKGTPPWDLDHPQPAFEALIKNGEIKPGRALDIGCGRGENAIILAMNGCDVIGIDLAENAISDAKAKATERHVKVKFVVEDALQMNRLFEEGEFDVVIDSGLFHVMMDEQRRVFAQQVHRVLREGGKYFMLCFSDKEPGEYELPRRLSKAEIESTFSPVFDITYIKEAVFDSLLSPSRRKAYLLSATRSLEHHHHHH” here?
A: failed

Q: With “MRRLLITILIFLLSNAGCCAPVFEIIPLGVYGGLKDGNLSAYLIKAIESKNYTALDGGTLVRGLEVAVDRQSLPSKKVDDLLQKHIPAYLISHAHLDHVMGLVMAQPELREKQTIMAREETMQALQDNIFNWSVWGNFGDSGAIPHLNFQHYQTLPLLQWLAIPDTDLHVKVFPLSHSGMASSAFLIRYKTEYALYFGDTGADRIEKSTNMENIWKEIAPLIRNKQLHAIMLECSFLNSQPDDKLFGHLKPNLFMSELRHLASIVDPFDSRNSLRGLPVVVTHIKPKLADFSNTNEDTEKQVINELSQENDIGVELIKPEQGITLSL” as the sequence, how does the protein production read?
A: failed

Q: Which protein production does the source give for “MRRLPTFGWALLVSIWAGLVGGAVIREPSVDLVPLYAVICQLLGLIAAYGTMRERSHILESVHRPGRVGMFIIILFFVMVPLTTVFALVLGDASVAGVATQWVSYLVGLGIALYVAFAGGFDRAWEKYT” here?
A: failed

Q: With “MRRLRFSPRSSFARTLLLIVTLLFASLVTTYLVVLNFAILPSLQQFNKVLAYEVRMLMTDKLQLEDGTQLVVPPAFRREIYRELGISLYSNEAAEEAGLRWAQHYEFLSHQMAQQLGGPTEVRVEVNKSSPVVWLKTWLSPNIWVRVPLTEIHQGDFSPLFRYTLAIMLLAIGGAWLFIRIQNRPLVDLEHAALQVGKGIIPPPLREYGASEVRSVTRAFNHMAAGVKQLADDRTLLMAGVSHDLRTPLTRIRLATEMMSEQDGYLAESINKDIEECNAIIEQFIDYLRTGQEMPMEMADLNAVLGEVIAAESGYEREIETALYPGSIEVKMHPLSIKRAVANMVVNAARYGNGWIKVSSGTEPNRAWFQVEDDGPGIAPEQRKHLFQPFVRGDSARTISGTGLGLAIVQRIVDNHNGMLELGTSERGGLSIRAWLPVPVTRAQGTTKEG” as the sequence, how does the protein production read?
A: failed

Q: For “MRRLVLAALLAATSLTTAKAGDLLIHGGPIHTGVEAAPTAEAVLIRDDKILFVGPLAAAKAKAAKDVRAIDLKGAAAYPGFVDAHAHLTGIGLRELTLNLDQVKSVAELVAAVKAYAAAHPEGPISGRGWIETHWPEKRFPTKADLDAAAPGRIVVLGRSDGHASVASSAALAKAGITAATVPPPGGDILKGPDGQPDGMLIDHAQALVRNVIPPPNQALKREALRKAGQLYAARGWTGMANMSVMAEDLSLLRDEAAKGNFHIRIDNYMDPSGAEEVLTKGPQTDATGLIRVQGIKLYMDGALGSRGAALLEPYSDADTLGLQLTQPEQGLALMKRAKAAGAQVAMHAIGDRGNRLVLDWFEQSLGAEAKAARWRNEHSQIVADTDVPRFAKLGVIASMQPSHAIGDLFFAPARLGKARLHEGYRWADFLKADVVVAAGSDAPVEVGDPRIEFYAAVYRHSLDGFANADWHLDQAVSRAEALKMLTLAPAYAVFREKELGTLEAGKKADVTAFDRDLMTVEPKAILTAQPVLTVVDGKVVYSR”, which protein production is on record?
A: failed
